Two molecules from PMC11419155 (bioRxiv, 2024) can be followed below.

In the assay the target is recombinant HAstV1 capsid spike, histidine-tagged (Human astrovirus 1 (AAC34717.1), UniProt O12792). Put plainly: BLI. (Biolayer interferometry detects binding as a change in optical thickness at a sensor tip.)
recombinant HAstV1 capsid spike, histidine-tagged, sequence (O12792 429-645): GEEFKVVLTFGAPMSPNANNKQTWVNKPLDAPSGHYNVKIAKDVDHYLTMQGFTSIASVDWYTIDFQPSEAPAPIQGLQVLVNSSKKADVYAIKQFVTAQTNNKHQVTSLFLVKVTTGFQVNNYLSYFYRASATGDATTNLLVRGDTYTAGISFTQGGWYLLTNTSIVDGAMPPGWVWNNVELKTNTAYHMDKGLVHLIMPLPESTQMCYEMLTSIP

B1: recombinant Fab 3B4 (Fab, V domains shown)
VH: QVQLHQPGAELVKPGASVNLSCKASGYTFTSYWMHWVKQRPGQGLEWIGEINPSSGRANYNEKFKNKATLTVDKSSITAYMHLSSLTSEDSAVYYCHWDYYAMDYWGQGTSVTVSS
VL: DIVLTQSPATLSVTPGDSVSLSCRASQSISNNLHWYQQKSHESPRLLFKSASQSISGIPSRFSGSGSGTDFTLSINSVETEDFGMYFCQQTNSWPLTFGTGTKLDLK
Consider B1, for which the Kd (in general, a measure of binding affinity in units of concentration) was 11.8 nM.

B2: recombinant Fab 3H4 (Fab, V domains shown)
VH: QVQLKESGPGLVAPSQSLSISCTVSGFSLTTFGIHWIRQPPGKGLEWLGVIWAAGTTNYNSTLKSRLTITKDNSRSQVFLKMNSLQTYDTAIYYCVREDYDYFFGLDYWGQGTSVTVSS
VL: QAVVTQESALTTSPGETVTLTCRSSTGAVTTSNYASWVQEKPDHLFIGLIGGTNNRAPGVPARFSGSLIGDKAALTITGAQTDDEAIYFCALWFSNHWVFGGGTKLTVL
As for B2, the Kd was 0.49 nM.
